The assay addresses DraIII restriction endonuclease (Deinococcus radiophilus ATCC 27603). The assay can be described thus: crystal structure; DraIII incubated 1:1 with an 11-bp phosphorothioate canonical DNA duplex, SEC with 5 mmol/L MgCl2; crystals at 18°C, hanging drop, 0.1 mol/L Tris-Cl, 20% 2-propanol, 5% PEG 8000, pH 8.0; the DNA was not observed in the structure.

For orientation: stoichiometry N means a count of units in the complex or per binding partner.

In turn, “DraIII restriction endonuclease (enzyme)” returned a stoichiometry N of 2.

Source of the values: PMC3996161.
